Article PMC5023729

What was measured:
[1] = target: F380L/F382L double mutant G3BP1 (human) (UniProt Q13283)
[2] = target: FLAG-G3BP1 (human, wild type) (human) (UniProt Q13283)

Substance | percentage of cells with SOD1 inclusions in which G3BP1 co-localizes (EGFP-tagged SOD1 and mCherry-tagged G3BP1 in G3BP1-null 293T cells) [1] [%] | percentage of cells with SOD1 inclusions in which G3BP1 co-localizes (EGFP-tagged SOD1 and mCherry-tagged G3BP1 in G3BP1-null 293T cells) [2] [%]
A4V mutant SOD1-3xHA (natural protein) | 36.1 | 86.6
A4V/W32S double mutant SOD1 (natural protein) | 14.7 | 49.1
